For the assay, the target named is T1, MukB^K1114E (E. coli, UniProt P22523 1-1486, K1114E).
T1 sequence (looked up): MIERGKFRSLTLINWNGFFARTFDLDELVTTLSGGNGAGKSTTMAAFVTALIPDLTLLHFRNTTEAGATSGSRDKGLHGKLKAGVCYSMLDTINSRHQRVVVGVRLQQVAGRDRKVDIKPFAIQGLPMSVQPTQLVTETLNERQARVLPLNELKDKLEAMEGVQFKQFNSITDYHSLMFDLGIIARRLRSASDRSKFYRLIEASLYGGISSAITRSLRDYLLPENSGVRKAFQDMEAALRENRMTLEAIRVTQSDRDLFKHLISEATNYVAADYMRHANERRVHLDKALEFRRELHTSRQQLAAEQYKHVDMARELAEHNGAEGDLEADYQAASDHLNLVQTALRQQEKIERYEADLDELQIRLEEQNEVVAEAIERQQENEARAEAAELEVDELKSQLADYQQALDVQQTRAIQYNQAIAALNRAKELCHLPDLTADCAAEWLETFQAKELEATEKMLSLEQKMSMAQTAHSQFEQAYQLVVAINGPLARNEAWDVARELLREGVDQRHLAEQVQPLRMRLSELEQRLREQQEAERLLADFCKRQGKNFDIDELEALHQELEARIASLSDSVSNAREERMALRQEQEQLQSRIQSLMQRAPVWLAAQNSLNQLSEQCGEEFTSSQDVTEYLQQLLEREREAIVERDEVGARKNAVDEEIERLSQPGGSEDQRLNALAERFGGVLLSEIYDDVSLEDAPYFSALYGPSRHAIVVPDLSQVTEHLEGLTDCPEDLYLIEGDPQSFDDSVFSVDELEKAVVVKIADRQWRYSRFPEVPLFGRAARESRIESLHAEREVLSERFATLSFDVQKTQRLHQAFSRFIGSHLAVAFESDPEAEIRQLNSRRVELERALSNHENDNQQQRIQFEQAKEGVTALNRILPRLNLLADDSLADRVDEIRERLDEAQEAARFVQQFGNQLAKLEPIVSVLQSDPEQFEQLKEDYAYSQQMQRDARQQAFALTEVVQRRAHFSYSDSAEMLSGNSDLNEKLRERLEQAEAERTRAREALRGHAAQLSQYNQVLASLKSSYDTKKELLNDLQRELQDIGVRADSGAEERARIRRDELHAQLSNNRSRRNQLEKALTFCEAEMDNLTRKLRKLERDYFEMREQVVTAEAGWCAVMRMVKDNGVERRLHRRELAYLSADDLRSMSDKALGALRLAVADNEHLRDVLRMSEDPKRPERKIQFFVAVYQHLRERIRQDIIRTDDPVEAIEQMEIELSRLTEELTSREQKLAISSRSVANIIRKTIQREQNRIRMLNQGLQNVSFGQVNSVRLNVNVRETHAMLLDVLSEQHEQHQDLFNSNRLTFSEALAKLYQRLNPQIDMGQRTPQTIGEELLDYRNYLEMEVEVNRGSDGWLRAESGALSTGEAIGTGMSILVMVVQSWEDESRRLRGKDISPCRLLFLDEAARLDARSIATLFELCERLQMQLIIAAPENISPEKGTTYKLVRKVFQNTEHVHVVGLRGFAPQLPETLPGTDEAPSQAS
The experiment in a line: native gel or EMSA. For orientation: Mobility shift assays separate free from complexed probe on a gel.

Consider one molecule from publication doi:10.1101/2021.04.12.439405 (bioRxiv, 2021).

B1: His-MukF (natural protein, E. coli, UniProt P60293 1-440, looked up)
chain: MSEFSQTVPELVAWARKNDFSISLPVDRLSFLLAVATLNGERLDGEMSEGELVDAFRHVSDAFEQTSETIGVRANNAINDMVRQRLLNRFTSEQAEGNAIYRLTPLGIGITDYYIRQREFSTLRLSMQLSIVAGELKRAADAAEEGGDEFHWHRNVYAPLKYSVAEIFDSIDLTQRLMDEQQQQVKDDIAQLLNKDWRAAISSCELLLSETSGTLRELQDTLEAAGDKLQANLLRIQDATMTHDDLHFVDRLVFDLQSKLDRIISWGQQSIDLWIGYDRHVHKFIRTAIDMDKNRVFAQRLRQSVQTYFDEPWALTYANADRLLDMRDEEMALRDEEVTGELPEDLEYEEFNEIREQLAAIIEEQLAVYKTRQVPLDLGLVVREYLSQYPRARHFDVARIVIDQAVRLGVAQADFTGLPAKWQPINDYGAKVQAHVIDKY
B1: the binding result is “binds”.
